Common to all, as to type: cell-based
One assay has as its system RAW264.7 cells. The assay is described as follows: Differentiation of osteoclast progenitor culture mass in biogel (ACP/ALP assay, TRAP staining). The conditions noted are these: RAW264.7 in biogel, 100 ng/ml Rankl, compared to control group (GM). As for the experimental part: 8-2. Culturing of Osteoclasts Osteoclast progenitor cells RAW264.7 were mixed with the biogel prepared in Example 6, in amounts of 5×10^5 cells/ml, 7×10^5 cells/ml, 1×10^6 cells/ml, and 3×10^6 cells/ml, and 100 μL of each of the resulting mixture liquids was gelled using a casting gel, to consequently yield three-dimensional culture mass, each containing 5×10^4 cells, 7×10^4 cells, 1×10^5 cells, 3×10^5 cells, and […]. Then, the three-dimensional culture mass were three-dimensionally cultured for 7 days in osteoclast media, which were formed by adding 100 ng/ml of Rankl to growth media containing α-MEM (Welgene, Korea) supplemented with 10% fetal bovine serum (FBS) (Gibco, USA), 100 U/ml of penicillin (Welgene, Korea), and […] of streptomycin (Welgene, Korea). Then, using ACP assay kit (Abcam, ab83367) and TRAP staining kit (Sigma, 181A), differences in the expression level of osteoclast differentiation factor were examined at different cell numbers. […]
(§1) Subsequently, on day 3 and day 7 of culturing, the MC3T3-E1 cells were measured for the osteoclast differentiation marker ACP, and the RAW264.7 cells were measured for the osteoblast differentiation marker ALP, to determine the influence of their respective differentiation markers on each other.

Another assay deals with MC3T3-E1 cells. The experiment in a line: Differentiation of osteoblast progenitor culture mass in biogel (ALP/ACP assay, ALP staining). To be noted: day 3 and day 7. As for the experimental part: Osteoblasts progenitor cells, MC3TC-E1 were mixed with the biogel prepared in Example 6, in amounts of […], and 100 μL of each of the resulting mixture solution was gelled using a casting gel, to consequently yield three-dimensional culture mass, each containing 7×10^3 and 1×10^5 cells. Then, the three-dimensional culture mass were three-dimensionally cultured for 7 days in osteoblast media, which were formed by adding 10 mM of β-glycerophosphate (Sigma Aldrich, USA), 50 μg/ml of ascorbic acid (Sigma Aldrich, USA), and 10 nM of dexamethasone (Sigma Aldrich, USA) to growth media supplemented with α-MEM (Welgene, Korea) supplemented with 10% fetal bovine serum (FBS) (Gibco, USA), 100 U/ml of penicillin (Welgene, Korea), and […] of streptomycin (Welgene, Korea). Thereafter, on day 3 and day 7 of culturing, differences in the expression level of ALP protein, which is an early osteoblast differentiation factor, were examined at different cell densities of culture mass, using ALP assay kit (Abcam, ab83369) and ALP staining kit (Sigma, P5869). […]
as §1

Assay [1] has as its system MC3T3-E1 cells and RAW264.7 cells co-culture. The assay is described as follows: Differentiation in 3D co-culture mass in biogel (ALP and ACP assay, ALP and TRAP staining). As for the experimental part:
In detail, after dissolving 0.5% agarose in 300 mM CaCl2 solution, the Phenol Red solution was added in an amount of 5 mg/L to produce a casting gel solution. Then, after introducing 5-5.5 ml of the casting gel solution into a casting tray, a three-dimensional semi-spherical casting mold was inserted in the casting tray, and after completely solidifying the casting gel solution, the casting mold was carefully removed to produce a three-dimensional semi-spherical casting gel mold. The biogel, 1×10^5 cells/ml of osteoblast progenitor cells MC3T3-E1, and 5×10^4 cells/ml of osteoclast progenitor cells RAW264.7, were introduced into the casting gel mold and subjected to gelation to yield a three-dimensional co-culture mass. Then, the co-culture mass was cultured in the following media: media treated only with an osteoblast differentiation induction factor (+3F); media only treated with an osteoclast differentiation induction factor (+R); and media treated with both osteoblast differentiation induction factor and osteoclast differentiation induction factor (+3F+R). Then, osteoblast differentiation profiles were characterized through ALP expression levels.
9-2. Creating the bone resorption environment through co-culture of osteoblasts and osteoclasts Under the same conditions as shown in Example 9-1, osteoclast differentiation profiles were characterized by […].

B1: Rankl (protein, UniProt O14788 140-317, looked up)
Tumor necrosis factor ligand …: IRAEKAMVDGSWLDLAKRSKLEAQPFAHLTINATDIPSGSHKVSLSSWYHDRGWAKISNMTFSNGKLIVNQDGFYYLYANICFRHHETSGDLATEYLQLMVYVTKTSIKIPSSHTLMKGGSTKYWSGNSEFHFYSINVGGFFKLRSGEEISIEVSNPSLLDPDQDATYFGAFKVRDID
notes: 100 ng/ml of Rankl added to growth media
B1: in the assay on RAW264.7 cells, the “expression of osteoclast differentiation factor ACP” value is “increased”. Also, in the assay with MC3T3-E1 cells, the “expression of osteoblast differentiation marker ALP” value is recorded as “little expression” and the “expression of osteoclast differentiation marker ACP” value is “little expression”. In addition, in assay [1] (combined treatment compared with osteoblast factor only), the “ALP expression (osteoblast differentiation)” value was “trace amount”. For the same molecule, in assay [1] (day 3 and day 7, combined treatment compared with osteoclast factor only), the “ACP expression (osteoclast differentiation)” value is given as “increased”.

Source of the values: patent publication US12252711B2, “Osteoporosis model comprising calcium phosphate hydrogel composition and use thereof” (MEDIFAB CO., LTD., priority 2019, dated 2025).
